The chains are these.
B1: FITC-labeled Par6β PBM peptide (peptide)
peptide: LEEDGTIITL
modifications: also: FITC label, position not given here
notes: source: synthetic peptide (Phtdpeptides)

Test [1] deals with T1, Par3 PDZ3 (rat, UniProt Q9Z340 582-685).
T1 construct: Par3, rat, third PDZ domain; Cloned into pGEX-6P-1 or a modified pET32a vector; also called rat Par3 PDZ3; source: E. coli BL21 (DE3) or Rosetta, purified (Ni2+-NTA, SEC)
As to the kind of experiment: fluorescence polarisation; FITC-labeled peptide (~1 μM) titrated with Par3 PDZ domains, 25 °C, buffer A (50 mM Tris pH 8.0, 100 mM NaCl, 1 mM EDTA, 1 mM DTT). Particulars: both partners purified.

Test [2] concerns the target B1. The description is as above. Conditions: both partners purified.

Ends that are not written are not given here.

T1 sequence (Q9Z340 582-685): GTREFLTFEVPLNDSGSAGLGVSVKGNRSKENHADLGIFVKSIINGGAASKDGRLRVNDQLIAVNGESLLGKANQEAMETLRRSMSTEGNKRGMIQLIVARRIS

Take B1: in test [1], the Kd was ~1000 nM.

B2: Par3 PDZ3 G600,602 A (domain or fragment, rat)
chain: GTREFLTFEVPLNDSGSAALAVSVKGNRSKENHADLGIFVKSIINGGAASKDGRLRVNDQLIAVNGESLLGKANQEAMETLRRSMSTEGNKRGMIQLIVARRIS
notes: Par3, rat, third PDZ domain with G600A and G602A; source: E. coli BL21 (DE3) or Rosetta, purified (Ni2+-NTA, SEC)
As to B2, the “fold weakening against wild-type Par3 PDZ3” value in test [2] is ~20 fold.

For the origin of these results see publication PMC7211019, “Par complex cluster formation mediated by phase separation” (Nature Communications, 2020).
